Reference: US20220125837A1, “METHODS FOR CONTROLLED ELIMINATION OF THERAPEUTIC CELLS” (Bellicum Pharmaceuticals, Inc., priority 2014, published 2022)
Substitutions are numbered along the chain they refer to. Names and notes keep the numbering of the source. “Also recorded” adds a separate entry of the source.

B1: D330A-N405Q: modified Caspase-9 polypeptide having a substitution at position 330 and a substitution at position 405 (protein, UniProt P55211 1-416, looked up, variant D330A N405Q)
chain: MDEADRRLLRRCRLRLVEELQVDQLWDALLSRELFRPHMIEDIQRAGSGSRRDQARQLIIDLETRGSQALPLFISCLEDTGQDMLASFLRTNRQAAKLSKPTLENLTPVVLRPEIRKPEVLRPETPRPVDIGSGGFGDVGALESLRGNADLAYILSMEPCGHCLIINNVNFCRESGLRTRTGSNIDCEKLRRRFSSLHFMVEVKGDLTAKKMVLALLELAQQDHGALDCCVVVILSHGCQASHLQFPGAVYGTDGCPVSVEKIVNIFNGTSCPSLGGKPKLFFIQACGGEQKDHGFEVASTSPEDESPGSNPEPDATPFQEGLRTFDQLAAISSLPTPSDIFVSYSTFPGFVSWRDPKSGSWYVETLDDIFEQWAHSEDLQSLLLRVANAVSVKGIYKQMPGCFQFLRKKLFFKTS
modifications: iCasp9, fused to FKBP12 F36V domain
B2: ^402GCFNF^406ISAQT: Caspase-9 polypeptide with the equivalent 5 residues from Caspase-10 (protein, UniProt P55211 1-416, looked up, variant G402I C403S F404A N405Q F406T)
chain: B1 chain with A330D, G402I, C403S, F404A, F406T
B3: F319W: chimeric modified Caspase-9 polypeptide (protein, UniProt P55211 1-416, looked up, variant F319W)
chain: B1 chain with F319W, A330D, Q405N
modifications: fused to FKBP12 F36V dimerization domain
notes: chimeric modified Caspase-9 polypeptide
B4: F319A: chimeric modified Caspase-9 polypeptide (protein, UniProt P55211 1-416, looked up, variant F319A)
chain: B1 chain with F319A, A330D, Q405N
modifications: fused to FKBP12 F36V dimerization domain
notes: as for B3
B5: N405F: chimeric modified Caspase-9 polypeptide (protein, UniProt P55211 1-416, looked up, variant N405F)
chain: B1 chain with A330D, Q405F
modifications: fused to FKBP12 F36V dimerization domain
notes: as for B3
B6: D327G: chimeric modified Caspase-9 polypeptide (protein)
chain: VDGFGDVGALESLRGNADLAYILSMEPCGHCLIINNVNFCRESGLRTRTGSNIDCEKLRRRFSSLHFMVEVKGDLTAKKMVLALLELARQDHGALDCCVVVILSHGCQASHLQFPGAVYGTDGCPVSVEKIVNIFNGTSCPSLGGKPKLFFIQACGGEQKDHGFEVASTSPEDESPGSNPEPDATPFQEGLRTFGQLDAISSLPTPSDIFVSYSTFPGFVSWRDPKSGSWYVETLDDIFEQWAHSEDLQSLLLRVANAVSVKGIYKQMPGCFNFLRKKLFFKTSASRA
B7: L329K: chimeric modified Caspase-9 polypeptide (protein)
chain: B6 chain with G195D, L197K
B8: Q328K: chimeric modified Caspase-9 polypeptide (protein)
chain: B6 chain with G195D, Q196K
B9: S196A: chimeric modified Caspase-9 polypeptide (protein)
chain: B6 chain with S64A, G195D
B10: F326K: chimeric modified Caspase-9 polypeptide (protein)
chain: B6 chain with F194K, G195D
B11: S183A: chimeric modified Caspase-9 polypeptide (protein)
chain: B6 chain with S51A, G195D
B12: D327K: chimeric modified Caspase-9 polypeptide (protein)
chain: B6 chain with G195K
B13: Q328R: chimeric modified Caspase-9 polypeptide (protein)
chain: B6 chain with G195D, Q196R
B14: S196D: chimeric modified Caspase-9 polypeptide (protein)
chain: B6 chain with S64D, G195D
B15: D330V: chimeric modified Caspase-9 polypeptide (protein)
chain: B6 chain with G195D, D198V
B16: T317A: chimeric modified Caspase-9 polypeptide (protein)
chain: B6 chain with T185A, G195D
B17: A331K: chimeric modified Caspase-9 polypeptide (protein)
chain: B6 chain with G195D, A199K
B18: D330N: chimeric modified Caspase-9 polypeptide (protein)
chain: B6 chain with G195D, D198N
B19: T317C: chimeric modified Caspase-9 polypeptide (protein)
chain: B6 chain with T185C, G195D
B20: S144A: chimeric modified Caspase-9 polypeptide (protein)
chain: B6 chain with S12A, G195D
B21: D327R: chimeric modified Caspase-9 polypeptide (protein)
chain: B6 chain with G195R
B22: D330G: chimeric modified Caspase-9 polypeptide (protein)
chain: B6 chain with G195D, D198G
B23: S144D: chimeric modified Caspase-9 polypeptide (protein)
chain: B6 chain with S12D, G195D
B24: A316G: chimeric modified Caspase-9 polypeptide (protein)
chain: B6 chain with A184G, G195D
B25: L329G: chimeric modified Caspase-9 polypeptide (protein)
chain: B6 chain with G195D, L197G

System: HEK293T/16 cells
Assay: Secreted alkaline phosphatase (SEAP) surrogate killing assay of iCasp9 mutants
Type: cell-based, human
Conditions: for relative SEAP activity Units (basal activity): no AP1903; for basal activity, in words: SEAP assay without AP1903, relative to wild type Caspase-9
Procedure: Early passage HEK293T/16 cells (ATCC, Manassas, Va.) were maintained in IMDM, GlutaMAX™ (Life Technologies, Carlsbad, Calif.) supplemented with 10% FBS, 100 U/mL penicillin, and 100 U/mL streptomycin until transfection in a humidified, 37° C., 5% CO2/95% air atmosphere. Cells in logarithmic-phase growth were transiently transfected with 800 ng to 2 μg of expression plasmid encoding iCasp9 mutants and 500 ng of an expression plasmid encoding SRα promoter driven SEAP per million cells in 15-mL conical tubes. […] GeneJammer® Transfection Reagent at a ratio of 3 μl per ug of plasmid DNA was used to transiently transfect HEK293T/16 cells in the absence of antibiotics. 100 μl or 2 mL of the transfection mixture was added to each well in 96-well or 6-well plate, respectively.
Briefly, after 65° C. heat denaturation for 45 minutes to reduce background caused by endogenous (and serum-derived) alkaline phosphatases that are sensitive to heat, 5 μl of supernatants was added to 95 μl of PBS and added to 100 μl of substrate buffer, containing 1 μl of 100 mM 4-methylumbelliferyl phosphate (4-MUP; Sigma, St. Louis, Mo.) re-suspended in 2 M diethanolamine. Hydrolysis of 4-MUP by SEAP produces a fluorescent substrate with excitation/emission (355/460 nm), which can be easily measured. […] 1000-ul of the mixture was seeded onto each well of a 96-well plate. […] For the assay, 4-methylumbelliferyl phosphate substrate was hydrolyzed by SEAP to 4-methylumbelliferon, a metabolite that can be excited with 364 nm and detected with an emission filter of 448 nm. Since SEAP is used as a marker for cell viability, reduced SEAP reading corresponds with increased iCaspase-9 activities.

Row | Molecule | basal activity, in words | further results
1 | B1 | intermediate | relative SEAP activity Units (basal activity) (1 μg iCasp9 per million cells, higher SEAP = lower basal activity): 205772; relative SEAP activity Units (basal activity) (2 μg iCasp9 per million cells): 174366; basal activity, in words (listed as iCasp9 D330A N405Q): low to undetectable basal activity
2 | B2 | reduced basal activity | –
3 | B3 | lower basal activity | –
4 | B4 | no effect | –
5 | B5 | lowered basal activity | –
6 | B6 | did not lower basal activity | –
7 | B7 | did not lower basal activity | –
8 | B8 | did not lower basal activity | –
9 | B9 | lower basal activity | –
10 | B10 | did not lower basal activity | –
11 | B11 | lower basal activity | –
12 | B12 | did not lower basal activity | –
13 | B13 | did not lower basal activity | –
14 | B14 | lower basal activity | –
15 | B15 | less basal activity than wild type Caspase-9 | –
16 | B16 | lower basal activity; also recorded: reduce basal activity | –
17 | B17 | did not lower basal activity | –
18 | B18 | less basal activity than wild type Caspase-9 | –
19 | B19 | no effect | –
20 | B20 | lower basal activity | –
21 | B21 | did not lower basal activity | –
22 | B22 | less basal activity than wild type Caspase-9 | –
23 | B23 | lower basal activity | –
24 | B24 | lower basal activity | –
25 | B25 | did not lower basal activity | –
